Experiments:
[1] = test system: T1, hCdc45-His6 (Homo sapiens); test: SPR; conditions: 3 mM EDTA, EMSA: 50 mM HEPES-KOH pH 7.5, 150 mM KCl, 0.5 mM DTT, 50 ug/ml BSA, 30 C 10 min, SPR: 20 mM HEPES-KOH pH 7.5, 150 mM KCl, 1 mM DTT, 0.005% P20 …; for Kd: Cdc45 immobilized by anti-His; for binding signal: scale: fold weaker than Y/bubble
T1 sequence: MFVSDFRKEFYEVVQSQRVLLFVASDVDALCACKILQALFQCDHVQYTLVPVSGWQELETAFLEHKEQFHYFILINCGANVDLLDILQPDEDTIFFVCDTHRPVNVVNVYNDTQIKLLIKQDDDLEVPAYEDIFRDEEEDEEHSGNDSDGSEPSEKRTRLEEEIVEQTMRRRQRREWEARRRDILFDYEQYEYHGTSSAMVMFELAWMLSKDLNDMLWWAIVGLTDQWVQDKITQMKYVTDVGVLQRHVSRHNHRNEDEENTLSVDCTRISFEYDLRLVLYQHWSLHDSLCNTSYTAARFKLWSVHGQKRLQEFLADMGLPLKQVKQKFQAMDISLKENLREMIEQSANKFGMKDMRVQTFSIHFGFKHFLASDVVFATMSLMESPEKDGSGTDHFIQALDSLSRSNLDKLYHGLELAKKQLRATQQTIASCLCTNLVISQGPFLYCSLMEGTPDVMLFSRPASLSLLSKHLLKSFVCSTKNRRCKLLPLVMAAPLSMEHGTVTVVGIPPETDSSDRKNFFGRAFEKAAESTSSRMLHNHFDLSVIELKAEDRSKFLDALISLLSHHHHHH

[2] = test system: T1, hCdc45-His6 (Homo sapiens); test: EMSA; conditions: EMSA: 50 mM HEPES-KOH pH 7.5, 150 mM KCl, 0.5 mM DTT, 50 ug/ml BSA, 30 C 10 min, SPR: 20 mM HEPES-KOH pH 7.5, 150 mM KCl, 1 mM DTT, 3 mM EDTA, 0.005% P20 …

Substance | Kd [1] [nM] | binding signal [1] | other results
bubble M5M6 (22 bp, 20 nt bubble, 22 bp) | 8 |  | 
Y-shaped DNA M3S4 (17 bp, two 17-mer overhangs) | 7.7 |  | 
67-mer ssDNA |  |  | binding signal (fold less efficient than 113-mer) ([2]; 2 nM DNA): 8.5
113-mer ssDNA |  |  | binding signal (% bound at 5 uM Cdc45) [2]: 85
R-loop |  | > 10 | 
D-loop M5M6M2 |  | > 10 | 

— publication PMC3936751
